Experimental data as given in IntAct's records for PubMed 17304241.

B1: Protein zyg-11 homolog B (Homo sapiens), Q9C0D3 (parent)
chain: MPEDQAGAAMEEASPYSLLDICLNFLTTHLEKFCSARQDGTLCLQEPGVFPQEVADRLLRTMAFHGLLNDGTVGIFRGNQMRLKRACIRKAKISAVAFRKAFCHHKLVELDATGVNADITITDIISGLGSNKWIQQNLQCLVLNSLTLSLEDPYERCFSRLSGLRALSITNVLFYNEDLAEVASLPRLESLDISNTSITDITALLACKDRLKSLTMHHLKCLKMTTTQILDVVRELKHLNHLDISDDKQFTSDIALRLLEQKDILPNLVSLDVSGRKHVTDKAVEAFIQQRPSMQFVGLLATDAGYSEFLTGEGHLKVSGEANETQIAEALKRYSERAFFVREALFHLFSLTHVMEKTKPEILKLVVTGMRNHPMNLPVQLAASACVFNLTKQDLAAGMPVRLLADVTHLLLKAMEHFPNHQQLQKNCLLSLCSDRILQDVPFNRFEAAKLVMQWLCNHEDQNMQRMAVAIISILAAKLSTEQTAQLGTELFIVRQLLQIVKQKTNQNSVDTTLKFTLSALWNLTDESPTTCRHFIENQGLELFMRVLESFPTESSIQQKVLGLLNNIAEVQELHSELMWKDFIDHISSLLHSVEVEVSYFAAGIIAHLISRGEQAWTLSRSQRNSLLDDLHSAILKWPTPECEMVAYRSFNPFFPLLGCFTTPGVQLWAVWAMQHVCSKNPSRYCSMLIEEGGLQHLYNIKDHEHTDPHVQQIAVAILDSLEKHIVRHGRPPPCKKQPQARLN

Variants of: B1
Conditions: with eloc_human ELOC

Row | effect of a mutation on the interaction | Variant
1 | disrupting interaction | L18S
2 | disrupting interaction | C22S
